Drawing on PMC7350259, this text covers percent inhibition of RV89 binding to plate-bound ICAM-1 (50 µg/mL ICAM-1, 25 µg/mL RV89) and percent inhibition of RV2 binding to plate-bound LDLR (50 µg/mL LDLR) for two substances.

In experiment [1] the target is human rhinovirus strain RV89 (purified virus) (human rhinovirus 89 (RV-A, major group)). In words: ELISA; fluid phase competition: RV89 (25 µg/mL) or RV2 (2 µg/mL in the methods, 5 µg/mL in the results) pre-incubated with soluble receptor (50 µg/mL) overnight at 4 °C, then added to plate-bound receptor. (ELISA stands for enzyme-linked immunosorbent assay.)
For experiment [2], the target named is human rhinovirus strain RV2 (purified virus) (human rhinovirus 2 (RV-A, minor group)). The experiment is described as above.

Regarding “recombinant human ICAM-1/CD54 (intercellular adhesion molecule 1) (from UniProt P05362 28-480) (receptor)”, in experiment [1], the percent inhibition of RV89 binding to plate-bound ICAM-1 (50 µg/mL ICAM-1, 25 µg/mL RV89) is greater than 95%.
“recombinant human low density lipoprotein receptor (LDLR) (from UniProt P01130 22-788)” yielded a percent inhibition of RV2 binding to plate-bound LDLR (50 µg/mL LDLR) in experiment [2] greater than 60%.
